Experimental data reported in PMC5622040 (Nature Communications, 2017).

Target: the molecule itself
Test: solid-state NMR of amyloid fibrils

B1: Syrian hamster PrP23-144 (domain or fragment)
chain: KKRPKPGGWNTGGSRYPGQGSPGGNRYPPQGGGTWGQPHGGGWGQPHGGGWGQPHGGGWGQPHGGGWGQGGGTHNQWNKPSKPKTNMKHMAGAAAAGAVVGGLGGYMLGSAMSRPMMHFGND
  binding result: binds
